Experimental data from patent publication US20150203577A1 (Chugai, published 2015).

Columns and labels:
[1] = biological target: T1, mouse FcγRII (mouse, UniProt P08101 30-210); assay: SPR (Biacore T200); KD of H237-MB630/MRAL-k0 / KD of variant
T1 construct: Extracellular domain with C-terminal His tag; also called mFcγRII; mFcgRII
T1 sequence: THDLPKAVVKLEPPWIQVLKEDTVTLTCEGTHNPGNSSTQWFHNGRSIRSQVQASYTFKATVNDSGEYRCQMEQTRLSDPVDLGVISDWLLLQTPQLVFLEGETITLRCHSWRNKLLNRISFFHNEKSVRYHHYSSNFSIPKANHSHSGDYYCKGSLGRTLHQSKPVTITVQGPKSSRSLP
Description: (§1) The antibody H chain variable region used was the variable region H237 (SEQ ID NO: 1) of the H chain VH3-IgG1 of the anti-IL-6 receptor antibody Fv4-IgG1 described in WO2009/125825. The antibody L chain commonly used was the L chain MRAL-k0 (SEQ ID NO: 2) of the anti-IL-6 receptor antibody tocilizumab. […] These variants were expressed and purified by the method of Reference Example 1 and evaluated for their binding to mFcγRII and mFcγRIII by the method of Reference Example 2 using Biacore T200.
(§2) Each altered antibody was analyzed for its interaction with each Fcγ receptor prepared above using Biacore T100 (GE Healthcare Japan Corp.), Biacore T200 (GE Healthcare Japan Corp.), Biacore A100, or Biacore 4000. The running buffer used was HBS-EP+ (GE Healthcare Japan Corp.). The assay temperature was set to 25° C. The sensor chips used were chips prepared by immobilizing Protein L (ACTIGEN or BioVision) onto Series S Sensor Chip CM5 (GE Healthcare Japan Corp.) or Series S Sensor Chip CM4 (GE Healthcare Japan Corp.) by the amine coupling method.
(§3) In order to calculate the KD value of each altered antibody for FcγR, kinetic analysis was conducted according to the following method: first, the antibody of interest was captured onto any of these chips and allowed to interact with mFcγR diluted with a running buffer. For the obtained sensorgram, the assay results were globally fit into the 1:1 Langmuir binding model using Biacore Evaluation Software to calculate an association rate constant ka (L/mol/s) and a dissociation rate constant kd (1/s). From these values, the dissociation constant KD (mol/L) was calculated.

[2] = biological target: T2, mouse FcγRIII (mouse, UniProt P08508 31-215); assay: as above
T2 construct: Extracellular domain with C-terminal His tag; also called mFcγRIII; mFcgRIII
T2 chain: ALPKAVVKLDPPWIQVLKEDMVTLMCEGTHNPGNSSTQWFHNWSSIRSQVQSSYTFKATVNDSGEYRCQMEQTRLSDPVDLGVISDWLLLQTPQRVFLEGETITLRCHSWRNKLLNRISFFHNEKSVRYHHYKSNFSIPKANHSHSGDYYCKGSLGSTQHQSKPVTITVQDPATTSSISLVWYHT
Description: as §1, §2, §3

[3] = biological target: T1, mouse FcγRII; assay: SPR (Biacore T200); KD of H237-mIgG1/MRAL-k0 / KD of variant
Description: as §1, §2

[4] = biological target: T2, mouse FcγRIII; assay: as above
Description: as §1, §2

B1: MB773 (antibody, mouse IgG1, kappa)
heavy: QVQLQESGPGLVKPSETLSLTCAVSGHSISHDHAWSWVRQPPGEGLEWIGFISYSGITNYNPSLQGRVTISRDNSKNTLYLQMNSLRAEDTAVYYCARSLARTTAMDYWGEGTLVTVSSAKTTPPSVYPLAPGSAAQTNSMVTLGCLVKGYFPEPVTVTWNSGSLSSGVHTFPAVLQSDLYTLSSSVTVPSSTWPSETVTCNVAHPASSTKVDKKIVPRDCGCKPCICEPNEVELVFIFPPKPKDVLTITLTPKVTCVVVDISKDDPEVQFSWFVDDVEVHTAQTQPREEQFNSTFRSVSELPIMHQDWLNGKEFKCRVNSAAFPAPIYKTISKTKGRPKAPQVYTIPPPKEQMAKDKVSLTCMITDFFPEDITVEWQWNGQPAENYKNTQPIMDTDGSYFVYSKLNVQKSNWEAGNTFTCSVLHEGLHNHHTEKSLSHSPGK
light: not shown
notes: CH name; VH H237 + CH, L chain MRAL-k0; copies: 2 + 2
Relative mFcγRII-binding activity (MB630 = 1) [1]: 1.17 fold
Relative mFcγRIII-binding activity (MB630 = 1) [2]: 1.25 fold
relative mFcγRII-binding activity (mIgG1 = 1) [3]: 12.7 fold
relative mFcγRIII-binding activity (mIgG1 = 1) [4]: 0.22 fold

B2: MB774 (antibody, mouse IgG1, kappa)
heavy: QVQLQESGPGLVKPSETLSLTCAVSGHSISHDHAWSWVRQPPGEGLEWIGFISYSGITNYNPSLQGRVTISRDNSKNTLYLQMNSLRAEDTAVYYCARSLARTTAMDYWGEGTLVTVSSAKTTPPSVYPLAPGSAAQTNSMVTLGCLVKGYFPEPVTVTWNSGSLSSGVHTFPAVLQSDLYTLSSSVTVPSSTWPSETVTCNVAHPASSTKVDKKIVPRDCGCKPCICEPNEVELVFIFPPKPKDVLTITLTPKVTCVVVDISKDDPEVQFSWFVDDVEVHTAQTQPREEQFNSTFRSVSELPIMHQDWLNGKEFKCRVNSAAFPAPIVKTISKTKGRPKAPQVYTIPPPKEQMAKDKVSLTCMITDFFPEDITVEWQWNGQPAENYKNTQPIMDTDGSYFVYSKLNVQKSNWEAGNTFTCSVLHEGLHNHHTEKSLSHSPGK
light: not shown
notes: as for B1
Relative mFcγRII-binding activity (MB630 = 1) [1]: 0.87 fold
Relative mFcγRIII-binding activity (MB630 = 1) [2]: 1.05 fold
relative mFcγRII-binding activity (mIgG1 = 1) [3]: 9.4 fold
relative mFcγRIII-binding activity (mIgG1 = 1) [4]: 0.18 fold

B3: MB775 (antibody, mouse IgG1, kappa)
heavy: QVQLQESGPGLVKPSETLSLTCAVSGHSISHDHAWSWVRQPPGEGLEWIGFISYSGITNYNPSLQGRVTISRDNSKNTLYLQMNSLRAEDTAVYYCARSLARTTAMDYWGEGTLVTVSSAKTTPPSVYPLAPGSAAQTNSMVTLGCLVKGYFPEPVTVTWNSGSLSSGVHTFPAVLQSDLYTLSSSVTVPSSTWPSETVTCNVAHPASSTKVDKKIVPRDCGCKPCICEPNEVELVFIFPPKPKDVLTITLTPKVTCVVVDISKDDPEVQFSWFVDDVEVHTAQTQPREEQFNSTFRSVSELPIMHQDWLNGKEFKCRVNSAAFPAPIEKNISKTKGRPKAPQVYTIPPPKEQMAKDKVSLTCMITDFFPEDITVEWQWNGQPAENYKNTQPIMDTDGSYFVYSKLNVQKSNWEAGNTFTCSVLHEGLHNHHTEKSLSHSPGK
light: not shown
notes: as for B1
Relative mFcγRII-binding activity (MB630 = 1) [1]: 0.84 fold
Relative mFcγRIII-binding activity (MB630 = 1) [2]: 1.02 fold
relative mFcγRII-binding activity (mIgG1 = 1) [3]: 9.1 fold
relative mFcγRIII-binding activity (mIgG1 = 1) [4]: 0.18 fold

B4: MB776 (antibody, mouse IgG1, kappa)
heavy: QVQLQESGPGLVKPSETLSLTCAVSGHSISHDHAWSWVRQPPGEGLEWIGFISYSGITNYNPSLQGRVTISRDNSKNTLYLQMNSLRAEDTAVYYCARSLARTTAMDYWGEGTLVTVSSAKTTPPSVYPLAPGSAAQTNSMVTLGCLVKGYFPEPVTVTWNSGSLSSGVHTFPAVLQSDLYTLSSSVTVPSSTWPSETVTCNVAHPASSTKVDKKIVPRDCGCKPCICEPNEVELVFIFPPKPKDVLTITLTPKVTCVVVDISKDDPEVQFSWFVDDVEVHTAQTQPREEQFNSTFRSVSELPIMHQDWLNGKEFKCRVNSAAFPAPIEKYISKTKGRPKAPQVYTIPPPKEQMAKDKVSLTCMITDFFPEDITVEWQWNGQPAENYKNTQPIMDTDGSYFVYSKLNVQKSNWEAGNTFTCSVLHEGLHNHHTEKSLSHSPGK
light: not shown
notes: as for B1
Relative mFcγRII-binding activity (MB630 = 1) [1]: 1.04 fold
Relative mFcγRIII-binding activity (MB630 = 1) [2]: 1.15 fold
relative mFcγRII-binding activity (mIgG1 = 1) [3]: 11.3 fold
relative mFcγRIII-binding activity (mIgG1 = 1) [4]: 0.2 fold

B5: MB777 (antibody, mouse IgG1, kappa)
heavy: QVQLQESGPGLVKPSETLSLTCAVSGHSISHDHAWSWVRQPPGEGLEWIGFISYSGITNYNPSLQGRVTISRDNSKNTLYLQMNSLRAEDTAVYYCARSLARTTAMDYWGEGTLVTVSSAKTTPPSVYPLAPGSAAQTNSMVTLGCLVKGYFPEPVTVTWNSGSLSSGVHTFPAVLQSDLYTLSSSVTVPSSTWPSETVTCNVAHPASSTKVDKKIVPRDCGCKPCICEPNEVELVFIFPPKPKDVLTITLTPKVTCVVVDISKDDPEVQFSWFVDDVEVHTAQTQPREEQFNSTFRSVSELPIMHQDWLNGKEFKCRVNSAAFPAPIEKTIIKTKGRPKAPQVYTIPPPKEQMAKDKVSLTCMITDFFPEDITVEWQWNGQPAENYKNTQPIMDTDGSYFVYSKLNVQKSNWEAGNTFTCSVLHEGLHNHHTEKSLSHSPGK
light: not shown
notes: as for B1
Relative mFcγRII-binding activity (MB630 = 1) [1]: 0.74 fold
Relative mFcγRIII-binding activity (MB630 = 1) [2]: 0.72 fold
relative mFcγRII-binding activity (mIgG1 = 1) [3]: 9.7 fold
relative mFcγRIII-binding activity (mIgG1 = 1) [4]: 0.17 fold

B6: MB778 (antibody, mouse IgG1, kappa)
heavy: QVQLQESGPGLVKPSETLSLTCAVSGHSISHDHAWSWVRQPPGEGLEWIGFISYSGITNYNPSLQGRVTISRDNSKNTLYLQMNSLRAEDTAVYYCARSLARTTAMDYWGEGTLVTVSSAKTTPPSVYPLAPGSAAQTNSMVTLGCLVKGYFPEPVTVTWNSGSLSSGVHTFPAVLQSDLYTLSSSVTVPSSTWPSETVTCNVAHPASSTKVDKKIVPRDCGCKPCICEPNEVELVFIFPPKPKDVLTITLTPKVTCVVVDISKDDPEVQFSWFVDDVEVHTAQTQPREEQFNSTFRSVSELPIMHQDWLNGKEFKCRVNSAAFPAPIEKTIKKTKGRPKAPQVYTIPPPKEQMAKDKVSLTCMITDFFPEDITVEWQWNGQPAENYKNTQPIMDTDGSYFVYSKLNVQKSNWEAGNTFTCSVLHEGLHNHHTEKSLSHSPGK
light: not shown
notes: as for B1
Relative mFcγRII-binding activity (MB630 = 1) [1]: 0.57 fold
Relative mFcγRIII-binding activity (MB630 = 1) [2]: 0.65 fold
relative mFcγRII-binding activity (mIgG1 = 1) [3]: 6.1 fold
relative mFcγRIII-binding activity (mIgG1 = 1) [4]: 0.11 fold

B7: MB779 (antibody, mouse IgG1, kappa)
heavy: QVQLQESGPGLVKPSETLSLTCAVSGHSISHDHAWSWVRQPPGEGLEWIGFISYSGITNYNPSLQGRVTISRDNSKNTLYLQMNSLRAEDTAVYYCARSLARTTAMDYWGEGTLVTVSSAKTTPPSVYPLAPGSAAQTNSMVTLGCLVKGYFPEPVTVTWNSGSLSSGVHTFPAVLQSDLYTLSSSVTVPSSTWPSETVTCNVAHPASSTKVDKKIVPRDCGCKPCICEPNEVELVFIFPPKPKDVLTITLTPKVTCVVVDISKDDPEVQFSWFVDDVEVHTAQTQPREEQFNSTFRSVSELPIMHQDWLNGKEFKCRVNSAAFPAPIEKTIWKTKGRPKAPQVYTIPPPKEQMAKDKVSLTCMITDFFPEDITVEWQWNGQPAENYKNTQPIMDTDGSYFVYSKLNVQKSNWEAGNTFTCSVLHEGLHNHHTEKSLSHSPGK
light: not shown
notes: as for B1
Relative mFcγRII-binding activity (MB630 = 1) [1]: 0.92 fold
Relative mFcγRIII-binding activity (MB630 = 1) [2]: 1.02 fold
relative mFcγRII-binding activity (mIgG1 = 1) [3]: 10 fold
relative mFcγRIII-binding activity (mIgG1 = 1) [4]: 0.18 fold

B8: MB780 (antibody, mouse IgG1, kappa)
heavy: QVQLQESGPGLVKPSETLSLTCAVSGHSISHDHAWSWVRQPPGEGLEWIGFISYSGITNYNPSLQGRVTISRDNSKNTLYLQMNSLRAEDTAVYYCARSLARTTAMDYWGEGTLVTVSSAKTTPPSVYPLAPGSAAQTNSMVTLGCLVKGYFPEPVTVTWNSGSLSSGVHTFPAVLQSDLYTLSSSVTVPSSTWPSETVTCNVAHPASSTKVDKKIVPRDCGCKPCICEPNEVELVFIFPPKPKDVLTITLTPKVTCVVVDISKDDPEVQFSWFVDDVEVHTAQTQPREEQFNSTFRSVSELPIMHQDWLNGKEFKCRVNSAGFPAPIEKTISKTKGRPKAPQVYTIPPPKEQMAKDKVSLTCMITDFFPEDITVEWQWNGQPAENYKNTQPIMDTDGSYFVYSKLNVQKSNWEAGNTFTCSVLHEGLHNHHTEKSLSHSPGK
light: not shown
notes: as for B1
Relative mFcγRII-binding activity (MB630 = 1) [1]: 1.86 fold
Relative mFcγRIII-binding activity (MB630 = 1) [2]: 2.29 fold
relative mFcγRII-binding activity (mIgG1 = 1) [3]: 20.2 fold
relative mFcγRIII-binding activity (mIgG1 = 1) [4]: 0.39 fold
